Reference: the RNAGym collection of RNA variant scans (doi:10.7554/elife.90254)

B1: OR4K15 (parent)
chain: GUUAACGGUCAUAGGCCAUGGAAACUAGGAGCACCAUUUCGCUGCCAGUGAAGAAAUGAACAAAGAAAAUCUGGGCCAGGCAGGCAUCAAAAGAAAUAGUCUUGCGCUCAACCAGAAAGUCUGUAAUCAUUUUAAGGGUA

Variants of: B1
Experiment: self-cleavage, relative activity (ratio to wild type); higher = more cleavage; in vitro, sequencing; the parent is a self-cleaving ribozyme

Variant	self-cleavage
GUUAACGGUCAUGGGCCAUGGAAACUAGGAGCACCAUUUCGCUGCCAGUGAAGAAAUGAACAAAGAAAGUCUGGGCCAGGCAGGCAUCAAAAGAAAUAGUCUUGCGCUCAACCAGAAAGUCUGUAAUCAUUUUAAGGGUA [A13G A69G]	0.92
GUUAACGGUCAUGGGCCAUGGAAACUAGGAGCACCAUUUCGCUGCCAGUGAUGAAAUGAACAAAGAAAAUCUGGGCCAGGCAGGCAUCAAAAGAAAUAGUCUUGCGCUCAACCAGAAAGUCUGUAAUCAUUUUAAGGGUA [A13G A52U]	0.84
GUUAACGGUCAUGGGCCAUGGAAACUAGGAGCACCAUUUCGCUGCCAGUGAGGAAAUGAACAAAGAAAAUCUGGGCCAGGCAGGCAUCAAAAGAAAUAGUCUUGCGCUCAACCAGAAAGUCUGUAAUCAUUUUAAGGGUA [A13G A52G]	1.22
GUUAACGGUCAUCGGCCAUGGAAACUAGGAGCACCAUUUCGCUGCCAGUGAAGAAAUGAACAAAGAAAAUCUGGGCCAGGCAGGCAUCAAAAGAAAUAGUCUUGCGCUCAACCAGAAAGUCUGUAAUCAUUCUAAGGGUA [A13C U132C]	1.06
GUUAACGGUCAUGGGCCAUGGAAACUAGGAGCACCAUUUCGCUGCCAGUGAAGAAAUGAACAAAGACAAUCUGGGCCAGGCAGGCAUCAAAAGAAAUAGUCUUGCGCUCAACCAGAAAGUCUGUAAUCAUUUUAAGGGUA [A13G A67C]	0.22
GUUAACGGUCAUGGGCCAUGGAAACUAGGAGCACCAUUUCGCUGCCAGUGAAGAAAUGAACAAAGAGAAUCUGGGCCAGGCAGGCAUCAAAAGAAAUAGUCUUGCGCUCAACCAGAAAGUCUGUAAUCAUUUUAAGGGUA [A13G A67G]	1
GUUAACGGUCAUCGGCCAUGGAAACUAGGAGCACCAUUUCGCUGCCAGUGAAGAAAUGAACAAAGAAAAUCUGGGCCAGGCAGGCAUCAAAAGAAAUAGUCUUGCGCUCAACCAGAAAGUCUGUAAUCAUUUUAGGGGUA [A13C A135G]	1.04
GUUAACGGUCAUGGGCCAUGGAAACUAGGAGCACCAUUUCGCUGCCAGUGAAGAAAUGAACAAAGAAAAUCUGGGCCAGGCAGGCGUCAAAAGAAAUAGUCUUGCGCUCAACCAGAAAGUCUGUAAUCAUUUUAAGGGUA [A13G A86G]	0.89
GUUAACGGUCAUGGGCCAUGGAAACUAGGAGCACCAUUUCGCUGCCAGUGAAGAAAUGAACAAAGAAAAUCUGGGCCAGGCAGGCCUCAAAAGAAAUAGUCUUGCGCUCAACCAGAAAGUCUGUAAUCAUUUUAAGGGUA [A13G A86C]	0.5
GUUAACGGUCAUGGGCCAUGGAAACUAGGUGCACCAUUUCGCUGCCAGUGAAGAAAUGAACAAAGAAAAUCUGGGCCAGGCAGGCAUCAAAAGAAAUAGUCUUGCGCUCAACCAGAAAGUCUGUAAUCAUUUUAAGGGUA [A13G A30U]	1.14
GUUAACGGUCAUGGGCCAUGGAAACUAGGGGCACCAUUUCGCUGCCAGUGAAGAAAUGAACAAAGAAAAUCUGGGCCAGGCAGGCAUCAAAAGAAAUAGUCUUGCGCUCAACCAGAAAGUCUGUAAUCAUUUUAAGGGUA [A13G A30G]	1
GUUAACGGUCAUGGGCCAUGGAAACUAGGAGCACCAUUUCGCUGCCAGUGUAGAAAUGAACAAAGAAAAUCUGGGCCAGGCAGGCAUCAAAAGAAAUAGUCUUGCGCUCAACCAGAAAGUCUGUAAUCAUUUUAAGGGUA [A13G A51U]	0.66
GUUAACGGUCAUCGGCCAUGGAAACUAGGAGCACCAUUUCGCUGCCAGUGAAGAAAUGAACAAAGGAAAUCUGGGCCAGGCAGGCAUCAAAAGAAAUAGUCUUGCGCUCAACCAGAAAGUCUGUAAUCAUUUUAAGGGUA [A13C A66G]	0.52
GUUAACGGUCAUGGGCCAUGGAAACUAGGAGCACCAUUUCGCUGCCAGUGAAGAAAUGAACAAAGAAAAUCUGGGCCAGGCAGGCAUCAAGAGAAAUAGUCUUGCGCUCAACCAGAAAGUCUGUAAUCAUUUUAAGGGUA [A13G A91G]	0.9
GUUAACGGUCAUGGGCCAUGGAAACUAGGAGCACCAUUUCGCUGCCAGUGAAGAAAUGAACAAAGAAAAUCUGGGCCAGGCAGGCAUCAAUAGAAAUAGUCUUGCGCUCAACCAGAAAGUCUGUAAUCAUUUUAAGGGUA [A13G A91U]	0.92
GUUAACGGUCAUGGGCCAUGGAAACUAGGAGCACCAUUUCGCUGCCAGUGAAGAAAUGAACAAAGAAAAUCUGGGCCAGGCAGGCAUCAACAGAAAUAGUCUUGCGCUCAACCAGAAAGUCUGUAAUCAUUUUAAGGGUA [A13G A91C]	1.81
GUUAACGGUCAUGGGCCAUGGAAACUAGGAGCACCUUUUCGCUGCCAGUGAAGAAAUGAACAAAGAAAAUCUGGGCCAGGCAGGCAUCAAAAGAAAUAGUCUUGCGCUCAACCAGAAAGUCUGUAAUCAUUUUAAGGGUA [A13G A36U]	0.67
GUUAACGGUCAUGGGCCAUGGAAACUAGGAGCACCAUUUCGCUGCCAGUGAAGAAAUGAACAAAGGAAAUCUGGGCCAGGCAGGCAUCAAAAGAAAUAGUCUUGCGCUCAACCAGAAAGUCUGUAAUCAUUUUAAGGGUA [A13G A66G]	0.55
GUUAACGGUCAUCGGCCAUGGAAACUAGGAGCACCAUUUCGCUGCCAGUGAAGAAAUGAACAAAGAAAAUCUGGGCCAGGCAGGCAUCAAAAGAAAUAGUCUUGCGCUCAACCAGAAAGUCGGUAAUCAUUUUAAGGGUA [A13C U122G]	2.12
GUUAACGGUCAUCGGCCAUGGAAACUAGGAGCACCAUUUCGCUGCCAGUGAAGAAAUGAACAAAGAAAAUCUGGGCCAGGCAGGCAUCAAAAGAAAUAGUCUUGCGCUCAACCAGAAAGUCCGUAAUCAUUUUAAGGGUA [A13C U122C]	1.03
GUUAACGGUCAUGGGCCAUGGAAACUAGGAGCACCAUUUCGCUGCCUGUGAAGAAAUGAACAAAGAAAAUCUGGGCCAGGCAGGCAUCAAAAGAAAUAGUCUUGCGCUCAACCAGAAAGUCUGUAAUCAUUUUAAGGGUA [A13G A47U]	1.26

Variant	self-cleavage
GUUAACGGUCAUGGGCCAUGGAAACUAGGAGCACCAUUUCGCUGCCAGUGAAGAAAUGAACAAAGAAAAUCUGGGCCAGGCAGGCAUCAGAAGAAAUAGUCUUGCGCUCAACCAGAAAGUCUGUAAUCAUUUUAAGGGUA [A13G A90G]	1.15
GUUAACGGUCAUGGGCCAUGGGAACUAGGAGCACCAUUUCGCUGCCAGUGAAGAAAUGAACAAAGAAAAUCUGGGCCAGGCAGGCAUCAAAAGAAAUAGUCUUGCGCUCAACCAGAAAGUCUGUAAUCAUUUUAAGGGUA [A13G A22G]	1.11
GUUAACGGUCAUCGGCCAUGGAAACUAGGAGCACCAUUUCGCUGCCAGUGAAGAAAUGAACAAAGAAAAUCUGGGCCAGGCAGGCAUCAAAAGAAAUAGUCUUGCGCUCAACCAGAAAGUCUGUAAUCAUUUUAAGGGCA [A13C U139C]	1.48
GUUAACGGUCAUGGGCCAUGGAAACUAGGAGCACCAUUUCGCUGCCAGUGAAGAAAUGAACAAAGAAAAUCUGGGCCAGGCAGGCAUCAAAAGAUAUAGUCUUGCGCUCAACCAGAAAGUCUGUAAUCAUUUUAAGGGUA [A13G A95U]	2.06
GUUAACGGUCAUGGGCCAUGGAAACUAGGAGCACCAUUUCGCUGCCAGUGAAGAAAUGAACAAAGAAAAUCUGGGCCAGGCAGGCAUCAAAAGAGAUAGUCUUGCGCUCAACCAGAAAGUCUGUAAUCAUUUUAAGGGUA [A13G A95G]	1
GUUAACGGUCAUGGGCCAUGGAAACUAGGAGCACCAUUUCGCUGCCAGUGAAGAAAUGAACAAAGAAAAUCUGGGCCAGGCAGGCAUCAAAAGAAGUAGUCUUGCGCUCAACCAGAAAGUCUGUAAUCAUUUUAAGGGUA [A13G A96G]	0.9
GUUAACGGUCAUGGGCCAUGGAAACUAGGAGCACCAUUUCGCUGCCAGUGAAGAAAUGAACAAAGAAAAUCUGGGCCAGGCAGGCAUCUAAAGAAAUAGUCUUGCGCUCAACCAGAAAGUCUGUAAUCAUUUUAAGGGUA [A13G A89U]	1.09
GUUAACGGUCAUGGGCCAUGGAAACUAGGAGCACCAUUUCGCUGCCAGUGAAGAAAUGAACAAAGAAAAUCUGGGCCAGGCAGGCAUCAAAAGAAAUAGUCUUGCGCUCAACCAGAAAGUCUGUAAUCAUUUUAAGGGUA [A13G]	0.79
GUUAACGGUCAUGGGCCAUGGAAACUAGGAGCACCAUUUCGCUGCCAGUGAAGAAAUGAACAACGAAAAUCUGGGCCAGGCAGGCAUCAAAAGAAAUAGUCUUGCGCUCAACCAGAAAGUCUGUAAUCAUUUUAAGGGUA [A13G A64C]	1.08
GUUAACGGUCAUGGGCCAUGGAAACUAGGAGCACCAUUUCGCUGCCAGUGAAGAAAUGAACAAGGAAAAUCUGGGCCAGGCAGGCAUCAAAAGAAAUAGUCUUGCGCUCAACCAGAAAGUCUGUAAUCAUUUUAAGGGUA [A13G A64G]	0.88
GUUAACGGUCAUGGGCCUUGGAAACUAGGAGCACCAUUUCGCUGCCAGUGAAGAAAUGAACAAAGAAAAUCUGGGCCAGGCAGGCAUCAAAAGAAAUAGUCUUGCGCUCAACCAGAAAGUCUGUAAUCAUUUUAAGGGUA [A13G A18U]	0.89
GUUAACGGUCAUGGGCCGUGGAAACUAGGAGCACCAUUUCGCUGCCAGUGAAGAAAUGAACAAAGAAAAUCUGGGCCAGGCAGGCAUCAAAAGAAAUAGUCUUGCGCUCAACCAGAAAGUCUGUAAUCAUUUUAAGGGUA [A13G A18G]	1.3
GUUAACGGUCAUGGGCCAUGGAAACUGGGAGCACCAUUUCGCUGCCAGUGAAGAAAUGAACAAAGAAAAUCUGGGCCAGGCAGGCAUCAAAAGAAAUAGUCUUGCGCUCAACCAGAAAGUCUGUAAUCAUUUUAAGGGUA [A13G A27G]	1.15
GUUAACGGUCAUGGGCCAUGGAAACUAGGAGCACCAUUUCGCUGCCAGUGAAGAUAUGAACAAAGAAAAUCUGGGCCAGGCAGGCAUCAAAAGAAAUAGUCUUGCGCUCAACCAGAAAGUCUGUAAUCAUUUUAAGGGUA [A13G A55U]	1.2
GUUAACGGUCAUGGGCCAUGGAAACUAGGAGCACCAUUUCGCUGCCAGUGAAGAGAUGAACAAAGAAAAUCUGGGCCAGGCAGGCAUCAAAAGAAAUAGUCUUGCGCUCAACCAGAAAGUCUGUAAUCAUUUUAAGGGUA [A13G A55G]	0.97
GUUAACGGUCAUGGGCCAUGGAAACUAGGAGCACCAUUUCGCUGCCAGUGAAGAAAUGAACAAAGAAAAUCUGGGCCGGGCAGGCAUCAAAAGAAAUAGUCUUGCGCUCAACCAGAAAGUCUGUAAUCAUUUUAAGGGUA [A13G A78G]	0.52
GUUAACGGUCAUGGGCCAUGGAGACUAGGAGCACCAUUUCGCUGCCAGUGAAGAAAUGAACAAAGAAAAUCUGGGCCAGGCAGGCAUCAAAAGAAAUAGUCUUGCGCUCAACCAGAAAGUCUGUAAUCAUUUUAAGGGUA [A13G A23G]	1.3
GUUAACGGUCAUCGGCCAUGGAAACUAGGAGCACCAUUUCGCUGCCAGUGAAGAAAUGAACAAAGAAAAUCUGGGCCAGGCAGGCAUCAAAAGAAAUAGUCUUGCGCUCAACCAGAAAGCCUGUAAUCAUUUUAAGGGUA [A13C U120C]	1.78
GUUAACGGUCAUGGGCCAUGGAAACUAGGAGCACCAUUUCGCUGCCAGUGAAGAAUUGAACAAAGAAAAUCUGGGCCAGGCAGGCAUCAAAAGAAAUAGUCUUGCGCUCAACCAGAAAGUCUGUAAUCAUUUUAAGGGUA [A13G A56U]	1.33
GUUAACGGUCAUGGGCCAUGGAAACUAGGAGCACCAUUUCGCUGCCAGUGAAGAAGUGAACAAAGAAAAUCUGGGCCAGGCAGGCAUCAAAAGAAAUAGUCUUGCGCUCAACCAGAAAGUCUGUAAUCAUUUUAAGGGUA [A13G A56G]	1.04
